In paper doi:10.1101/2020.08.21.260323 one finds Kd and stoichiometry N data, which are given here for four substances.

In experiment [1] the target is SpaKC, class III lanthipeptide synthetase (LanKC) homolog from S. sparsogenes ATCC 25498 (S. sparsogenes ATCC 25498). The experiment is described as follows: MST.
For experiment [2], the target named is SpaKC-SpaF complex (S. sparsogenes ATCC 25498). The experiment is described as follows: MST.
In experiment [3] the target is SpaF, FMN-dependent cysteine decarboxylase of the spa gene cluster (S. sparsogenes ATCC 25498). As to the kind of experiment: crystal structure.

One may read the Kd as the free concentration of one partner at which half of the binding sites on the other are occupied at equilibrium, for simple one-to-one binding. The substance SpaA leader peptide displayed a Kd in experiment [1] of 275 nM.
As for SpaA precursor peptide, the values for the dissociation constant (Kd) in experiment [1] and in experiment [2] were 217 nM and 94 nM, respectively.
In general, stoichiometry N refers to the number of molecules, sites or subunits per partner or assembly. The substance “SpaF, FMN-dependent cysteine decarboxylase of the spa gene cluster (enzyme)” yielded a stoichiometry N in experiment [3] of 12. In experiment [1], this substance showed a Kd of 182 nM.
In experiment [1], “TvaF, cysteine decarboxylase from thioviridamide biosynthesis (enzyme)” registered a dissociation constant Kd of 2270 nM.
